Measurements as given in a protein production outcome set (Wang et al. 2014).

Assay: label from the status in PepcDB records

Sequence | protein production
MRRSMRMNMSVASNIHSLLARLLPERVIAPPAPAGRRQRLFSGVGLPSQRSLLVNRLDEANDLQAVYVDLRRQALQGSVSALNDLGWIWLNGKYWRADTVLAGHLLRMAALQGNAAAWFNLGQQHYFGKGIDPSYVQAAECYRQAFDRGMLHAAAALGDLYEEEVCDGDLEWQVDLVQAYQWFLRGAEQGEARCRFEMGYRLMHGLHVEANLKAALYWLELAAAAGVVQAAEELAVHFSSRDAVRYQEWRDRAVQMGSTLALTMKLEDQIHP | failed
MRRTVRYILATSNPMGDLEALEKFVKLAPDTGADAIALIGNLMPKAAKSRDYAAFFRILSEAHLPTAYVPGPQDAPIWEYLREAANVELVHPEMRNVHETFTFWRGPYLVAGVGGEIADEGEPEEHEALRYPAWVAEYRLKALWELKDYPKIFLFHTMPYHKGLNEQGSHEVAHLIKTHNPLLVLVAGKGQKHEMLGASWVVVPGDLSEGEYSLLDLRARKLETGNVR | not failed
MRSDGRKEDQLRPVSIQRDFLEYPEGSCLISFGKTKVICTASVIENVPNWLKGKGQGWITAEYSMLPRATQQRTIRESVQGRIGGRTHEIQRMIGRAMRTAVELTKIGERTIWVDCDVIQADGGTRTAAITGAFVAVADAIIKLHKEGIIEETPIKDFVAAVSVGIVNDRILLDLNFEEDSAAQVDMNVVGTGSGRLSEVHTMGEEYSFTKDELIKMLDLAQKGINELIELQKKLYVIQDGKWERSELKEVSSTT | not failed
MRSGKIASEEYKDNPLTSCGTVRYWAAAKAAAGRHEETFTASTLSDLLEQVRQKYEGNAAMLAVLARSSFLVNATPVGVRPHHEVVLEPGWIVEVLPPFAGG | failed
MRSIRLRVDWRATASLLGTVLKYLAVALLVPLTVAVIYWEDIWVFAVAIAITVTLGFTLERLDPEPDMGPAEALLLVTVSWLAVAMVGSVPYLLAGYGTASTLANPVNALFESMSGFTTTGATVMGEISTDQHSHALLLWRQLTQWLGGMGIIVLMIAILPELAVNGAQLMKTEAPGPELQKLTPRIAETARVLWLVYFGFTVLLAALLYGLHLAGFAPNMHLYNAVAHAFTTLPTGGFSPESDSIAAFSAVVQWVIIPFMVIAGTNFALFWHLLDGDIRTLLNDAEFRVYAGAIAVLSAILAALLYGGAAPAQELGGTTAGNTENALRQAAFQVGSLMNSTGFATSDFAQWGPTAQALLLFTMFVGGSAGSTGGGIKVIRWLVVMKAIRRELSVTARPEAVKPVRLGGYVVDEDVVRGIMVFTLLYLALFGAATVFFAVDSLRVGYELSVLEAMSASIATLGNIGPGFGMLGPFGSYLGFPPETKIVMVFLMWVGRLEIIPVLAVFTGAFWKR | failed
MRSNHLPCWHTGPLSTLNVRPHLARAWHPLVCIYQRCLATALPTAPAVDSYCISTEIPYYDLVGRLGGKGPSKQTFTMQMLFHKKQRTPLGFCDGLDNVFVGFGSKDEKGCRPPKYHASYAPYYPIHKAASMGDVNTVKSFVERGVFAMEQTDWKYRTALHFACVYGHPEVVTLLVESSCEISPKDIKDATPLIKASQCRQTECLNILLKHGADPNIMDCSDNTALHYAVYNGDIETATKLLEYKANIEAINENKITPLLLALKQNKEKMAEFLIHNGANAKTCDFLGRSSLMYAVRCGSELIIKLLLQRDIDTFKQDVFGWTAKRYAVESKSRVRKLLIDYDEEELRQRCSVPKLSSSSLKELCLDSHYDRNTNISNTGKTREKFSQCTLWEEEHPILPTVKVKDSPRSEAVEKAEARPSKSESNEEDTCTTPTLPTTKVKDPSQSEAVEKAEARPSKSGKLTV | failed
MRSNYAKKLVAGTLVASMTITASMPLFADELATEIPSAGAAVIVEDYINNSGKETDIEKLLPTEATDSTATANETTKTENQTEKTQTSNTATSSEDKLFANIAITKVSGGAEDYVNVRKKPTTESKVVGKIYNNSGAKILEKTNNGWYKIVSGNCTGYIKSDFFVTGSSAKSRALDNGYVQAEAKDAIHVRAEASTNSKVVTNVYKNETYTIKKFDKTGEWIKVKIKAGVSGWISAQYANVNINMETAITRKIEKAKIKKEREAAKAAAKAAAEEEARKQAEQQEQQASNDNSQSSSDGTYSNSSNSSSRSNYSNSSSSSSSSSSSSSSSSSKKSHSSSSSSSSGSGTGAAIVAYAKQFLGNPYVYGGASLTNGTDCSGFTMSVYAHFGYGLSRSSYTQVNNGRAVSMSSLQPGDLLFYKYGGSTISHVAIYIGGGQIIHASTEETGIIISGMGSPCAARRIIG | failed
MRSPIKLEFSEKYDKDHAREYFLKHQDGLARRLSHKRDEQLARRALALAGEPGLVLDLPCGAGRFWPLLAEKPNRVIIGADNSEAMIETACAAQPPEVVARVRPLQTSAFAIDLPDNAVDSIFCMRLFHHIGESAHRKTILSEFQRVSRDSVILSLWVDGNFKAWRRKKLEQRRSAKAEQDNYQNRFVLPAETVEEEFRAAGFRIQERLDFLPFYAMWRVYVLRKG | failed
MRSTKIVCTVGPRTDSYEMIEKMIDLGVNVFRINTSHGDWNEQEQKILKIKDLREKKKKPVAILIDLAGPKIRTGYLEKEFVELKEGQIFTLTTKEILGNEHIVSVNLSSLPKDVKKGDTILLSDGEIVLEVIETTDTEVKTVVKVGGKITHRRGVNVPTADLSVESITDRDREFIKLGTLHDVEFFALSFVRKPEDVLKAKEEIRKHGKEIPVISKIETKKALERLEEIIKVSDGIMVARGDLGVEIPIEEVPIVQKEIIKLSKYYSKPVIVATQILESMIENPFPTRAEVTDIANAIFDGADALLLTAETAVGKHPLEAIKVLSKVAKEAEKKLEFFRTIEYDTSDISEAISHACWQLSESLNAKLIITPTISGSTAVRVSKYNVSQPIVALTPEEKTYYRLSLVRKVIPVLAEKCSQELEFIEKGLKKVEEMGLAEKGDLVVLTSGVPGKVGTTNTIRVLKVD | not failed
MRSVRKRTVLVSTLLALVLTQVARADDKGSHPAVIGDVHFKVECNATAQAKFNVAVAYYHSFQWQRVIATADDVLKVDPTCGMAHWVKALAMLDNPFAWPVTLSEKAIAEGPVLLDAARKAGLKTQRERDYVDALAIFFKDLNTTNYRERAESFEKAMAQLAQQNADDSEATVLYALILSRNFDPTDKTYRNQLHAAELLEPIFAREPNHPGVAHYLIHSYDYPPLAKRGIDAARKYAKIAPDTPHSLHMPSHIFTLTGFWQESIDTNRRAAEMADDSITHDGHHASDYMVYAHLQLGQDLAARKIMEQEQVRHGIDMIGVAYPYAAIPARIALERRAWREAADLPLYARDTYPWKKYPQAEAVNAFARGVGSAMSGEPAKANFEAKRLIKLRDAATAMKLNYWADQIDIQAEVVRGLADFAEGKRDEGIAILHRAAEREDASAKNVVTPGPVVPAREMLATILERDRKPADALAEFEKVLEQHPNRYRTIAGAAQNAKQAGNEQKADHYAELLLKLAEHADSPRPEIAEAKSMLGM | failed
MRTICVFNNKGGVGKTTLLCNLAAYFSIKRGKKVLVVDADPQCNATAYMIKEKVLDKLYASSSSDSATINSLIASLKKSKGYGIPPVLRSDGFNVDIVPGDPKFSLAEDFLAKDWLDAIAGDERGLRTTFFFRNLISWARSDGYDLVFFDMGPSLGAINRTVLLSSDHFILPMSSDIFSLRGLQNIEVALKNWTKGIERGLVSFKEDQGTSFKVESGDALSELGVSFLGYVTQQYTAKTVDGKKQPVSAYEKIIKKIDPLVSKHLILPLNKGQKLNYKLGEIPYFQSLVPMAQTATVPIFALKKADGVVGAHFDKVRQFDSVISGIVDKIEANMNSKGN | failed
MRTLGIIGFGGFGQFMVKHLQPYISVTVHDLTDLSHIAAEHKVEWGTLQETASKDIVILAVPVQFLESLLLEIKDYLKAEALIVDVSSVKVKPIELMLKHLPLTVDILGTHPLFGPQSGKNGIKGLNMVVCPVRSKKMRAITHFLRNVIQLNVLERTPETHDKQMAYVQALTHFIGRSINEMDIPDVEQKTPAYQYLLDIKRNLGGDSMDLFLTIELENPYAKKVREEFMGALKSLNDRLEHIKR | failed
MRTLLFLHLLGAAIWVGGHLVLALGILPGALRRRDPQAIRAFEQVYERIGIPALLLQVVSGLWLASLWLPFDHWFGATPVARALQLKLLLLAATAALGVHARLRLIPNLDAESLPKLGWHIAAITLVGLGFVAVGQSFRFGGAF | failed
MRTLLFLMLGSVSAIANAASPAPASASASAASATATATPEQIKLQLREYFFDAAREGRQDMLAEFIRSHYDLNTRDEKGYTALILAAYHGQRPAVEQLLSAGADPCAQDKRGNTALMGAIFKGELGIAKRLMQADCAPDQRNNAGQTAAMYAALFQRTDVLKDLAAKGADLSLKDGQGNDVTKLQRGEFATTPAR | failed
MRTLLITGPGGSGRTTVAAATALRASRTGTRTLVLSADRTDTLGAALGVPTGGAPVEAAPGLTAWRPDAADRFRADLTAFQDRAATALDFLGAARLDAEELTPLPGAEELALLRALRDAALSEAYDLLVVDLPPAPQALALLALPEELRRYLRRLLPPERQAARALRPVLGRLAGVPMPADWLYETAARWDVELAAVEAVVEDRATTVRLVAEPGPAGADAVRAAATGFALRAVRIDTLIANRLLPEEADDAWSAGLAAQQRKFLEEWRGEYRLHELPHLGHDPRGADDLAALAVPGVNDAPGPVEWSVADRLADDGVLVWHIPLPGAIRDELDLLRRGDELVVTAGQFRRIVPLPSALRRCTVAGAALREGELRIRFAPDPDLWPRERLEHHHHHH | not failed
MRTLRSLMLAAALAVALAVTGFAASPLPSAYAKYAAGPTKILPLQRAFPLDELVELSELRARDRVRHARILLGGGRQSSVGGVVDFPVQGSSDPYLVGLYFTKVKLGSPPTEFNVQIDTGSDILWVTCSSCSNCPHSSGLGIDLHFFDAPGSLTAGSVTCSDPICSSVFQTTAAQCSENNQCGYSFRYGDGSGTSGYYMTDTFYFDAILGESLVANSSAPIVFGCSTYQSGDLTKSDKAVDGIFGFGKGKLSVVSQLSSRGITPPVFSHCLKGDGSGGGVFVLGEILVPGMVYSPLVPSQPHYNLNLLSIGVNGQMLPLDAAVFEASNTRGTIVDTGTTLTYLVKEAYDLFLNAISNSVSQLVTPIISNGEQCYLVSTSISDMFPSVSLNFAGGASMMLRPQDYLFHYGIYDGASMWCIGFQKAPEEQTILGDLVLKDKVFVYDLARQRIGWASYDCKCNHRVMSYRKL | failed
MRTMPDKPDTWARIVAAISNPLWQGMIMAIVVSLLRILYDAKETSKRRILFEALICGSLSLVASSLIEWMTWPPSLSVAAGGTIGFLGVTAIRELVARFIGRKVDSL | failed
MRTPTTILLLVGAILFSGAGYVRSDASDHRYKEGDTVPLYANKVGPFHNPSETYRYFDLPFCIPEGVKEKKEALGEVLNGDRLVSAPYKLNFRDEKESEVYCNKKLSKEEVKQFRKAVEKDYYFQMYYDDLPIWGFIGKVDKDIKSDPSEFKYFLYKHIQFEILYNKDRVIEISARMDPHSLVDLTEDKEVDAEFMYTVKWKETETPFEKRMEKYSMSSSLPHHLEIHWFSIINSCVTVLLLTGFLATILMRVLKNDFMKYAQDEEAADDQEETGWKYIHGDVFRFPTHNSLFAASLGSGTQLFTLTIFIFMLALVGVFYPYNRGALFTALVVIYALTSGIAGYTSASFYCQLEGKSWVRNLLLTGCLFCGPLFLTFCFLNTVAITYTATAALPFGTIVVIVLIWTLVTSPLLVLGGIAGKNSKAEFQAPCRTTKYPREIPPLPWYRSAIPQMAMAGFLPFSAIYIELYYIFASVWGHRIYTIYSILFIVFIILIIVTAFITVALTYFQLAAEDHQWWWRSFLCGGSTGLFIYAYCLYYYYARSDMSGFMQTSFFFGYMACICYGFFLMLGTVGFRAALLFVRHIYRSIKCE | failed
